In patent US20100279930A1 (published 2010):
Numbering of substitutions follows the chain as printed. No end group written: not given here.

B1: compound of SEQ ID NO:52 (code 6647) (peptide)
peptide: KAPLEPVYPGDNATPEQMAQYAADLRRYINMLTRPRY
notes: Synthetic analogue of human PP with an additional amino acid at position 0
B2: compound of SEQ ID NO:168 (Ala 0, Ala 23 and Lys 30, code 7215) (peptide)
peptide: B1 peptide with K1A, D24A, M31K
notes: Synthetic analogue of human PP with additional Ala at position 0, Ala at 23 and Lys at 30
B3: compound of SEQ ID NO:348 (Ala 0, Lys19, Lys 30, code 4056385) (peptide)
peptide: B1 peptide with K1A, Q20K, M31K
notes: Synthetic analogue of human PP with additional Ala at position 0, Lys at 19 and Lys at 30
B4: compound of SEQ ID NO:56 (code 6653) (peptide)
peptide: B1 peptide with K1P
notes: as for B1
B5: compound of SEQ ID NO:171 (code 7218) (peptide)
peptide: B1 peptide with K1A, M31K
modifications: ends and bridges not checked
notes: Synthetic analogue of human PP; introduced as additional Ala at position 0 and Lys at position 30, later in the same paragraph labelled 'Ala 0, Lys 19'
B6: compound of SEQ ID NO:53 (code 6650) (peptide)
peptide: B1 peptide with K1H
notes: as for B1
B7: compound of SEQ ID NO:62 (code 6659) (peptide)
peptide: APLEPVYPGDNATPEQMAQYAADLRRYINMLTRPHRY
modifications: ends and bridges not checked
notes: Synthetic analogue of human PP; cited for changes at positions 34-36
B8: compound of SEQ ID NO:24 (code 6453) (peptide)
peptide: APLEPVYPGDNATPEQMAQYAADLRRYINMLTRQRY
modifications: ends and bridges not checked
notes: as for B7
B9: compound of SEQ ID NO:275 (code 4055745) (peptide)
peptide: B8 peptide with V6F, Q34P
modifications: ends and bridges not checked
notes: Synthetic analogue of human PP; cited for a change at position 6
B10: compound of SEQ ID NO:260 (code 4055714) (peptide)
peptide: B8 peptide with M30V, Q34P
modifications: ends and bridges not checked
notes: Synthetic analogue of human PP; cited for changes at positions 29-31
B11: compound of SEQ ID NO:276 (4055746) (peptide)
peptide: B8 peptide with V6E, Q34P
modifications: ends and bridges not checked
notes: as for B9
B12: compound of SEQ ID NO:255 (code 4055708) (peptide)
peptide: B8 peptide with Q34P, Y36F
modifications: ends and bridges not checked
notes: as for B7
B13: compound of SEQ ID NO:259 (code 4055713) (peptide)
peptide: B8 peptide with M30I, Q34P
modifications: ends and bridges not checked
notes: as for B10
B14: compound of SEQ ID NO:261 (code 4055715) (peptide)
peptide: B8 peptide with M30F, Q34P
modifications: ends and bridges not checked
notes: as for B10
B15: compound of SEQ ID NO:167 (code 7214) (peptide)
peptide: B8 peptide with D23A, M30K, Q34P
notes: Synthetic analogue of human PP with Ala at position 23 and Lys at position 30
B16: compound of SEQ ID NO:1090 (code 4059937) (peptide)
peptide: GAPLEPHAPGDNATPEEMAKYAAELRRYINKLTRPRY
modifications: ends and bridges not checked
notes: Synthetic analogue of human PP; cited for a change at position 7
B17: compound of SEQ ID NO:702 (code 4058286) (peptide)
peptide: PAPLEAVYPGDNATPEQMARYYSELRRYINKLTRPRY
modifications: ends and bridges not checked
notes: Synthetic analogue of human PP; cited for Ala at position 5
B18: compound of SEQ ID NO:9 (Ala 0, code 6433) (peptide)
peptide: B1 peptide with K1A
notes: Synthetic analogue of human PP with an additional Ala at position 0
B19: compound of SEQ ID NO:277 (Ala 23, code 4055747) (peptide)
peptide: B8 peptide with D23A, Q34P
notes: Synthetic analogue of human PP with Ala at position 23
B20: compound of SEQ ID NO:224 (Lys 19, code 4055291) (peptide)
peptide: B8 peptide with Q19K, Q34P
notes: Synthetic analogue of human PP with Lys at position 19
B21: compound of SEQ ID NO:281 (Lys 30, code 4055855) (peptide)
peptide: B8 peptide with M30K, Q34P
notes: Synthetic analogue of human PP with Lys at position 30

Target: T1, human Y4 receptor (human, UniProt P50391 1-375)
T1 construct: whole, on cells; Used as a cell membrane preparation from transfected HEK-293T cells, not as intact cells; also called Human Y Receptor-4
T1 sequence (P50391 whole entry): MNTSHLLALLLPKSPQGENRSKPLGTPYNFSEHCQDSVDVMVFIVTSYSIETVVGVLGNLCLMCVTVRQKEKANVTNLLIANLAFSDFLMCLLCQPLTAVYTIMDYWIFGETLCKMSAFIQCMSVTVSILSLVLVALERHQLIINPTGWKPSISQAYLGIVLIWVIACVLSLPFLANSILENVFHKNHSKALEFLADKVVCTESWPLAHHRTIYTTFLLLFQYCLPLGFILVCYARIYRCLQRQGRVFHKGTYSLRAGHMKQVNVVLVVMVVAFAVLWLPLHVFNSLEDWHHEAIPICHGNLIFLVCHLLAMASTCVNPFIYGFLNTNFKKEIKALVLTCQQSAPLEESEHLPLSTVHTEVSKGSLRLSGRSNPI
Experiment: 125I-PP displacement assay, human Y4 receptor membranes

Binding result, binds:
B1, B2, B3, B4, B5, B6, B7, B8, B9, B10, B11, B12, B13, B14, B15, B16, B17

Target: T1, human Y4 receptor
Experiment: 125I-PP displacement assay, human Y4 receptor membranes; weaker reference compound

Binding result, binds:
B18, B19, B20, B21
